Assay results from the DeepSol protein solubility set.

test: soluble on expression in E. coli; label from the status in PepcDB or PDB records

Sequence | soluble on expression in E. coli
MSAKRCASYYNATIKQESDYPELEGDIHVDVTIIGGGFTGVATAVELSEKGYKVALLEANKIAWGATGRNGGQVTGSLSGDAAMTKQLRRHLGQDAEDYVWNLRWRGHDIIKNRVAKYGIDCDLKFGHIQTAYHPGHMQELQQMFDEANRRGMGEFMTLVPAQEMSAYLASPLYHGGLVNRRNMHLHSVNLCLGEARAAASLGAQIFEHSQVLDIQQAELATVVTPKGTVKANSVLIAGNAYHKLGRPKLRGMLFPASLGNCATAKLPEELAKQLNPQNLAVYDCRFVLDYYRLTADNRLMFGGGTNYSGRDPKNVAAELRPAIERTFPQLKGVDIEFAWAGMAGIVINRIPQLGKISPNIFYCQGYSGHGVATSHIMAEIMGQAIDGQMQEFDLFAAMRHIRIPLNEWFGNQALALGMLYYTLRENWRLEHHHHHH | not soluble
MSALSTLKVTFIVSPPSFPCFHTPGPRRKAAPFRFTGQSAYPLWYHGGMAEAFCPVYAALNLLQEKWTLHIIRALLEGPKGFNELSRAVGGVNPATLSQRLDQLVRLGVVEKRVESYMPPRTRYSLTPAGEELEEVVQAIERWARRHLKAPDPAR | soluble
MSAPFEERSGVVPCGTPWGQWYQTLEEVFIEVQVPPGTRAQDIQCGLQSRHVALAVGGREILKGKLFDSTIADEGTWTLEDRKMVRIVLTKTKRDAANCWTSLLESEYAADPWVQDQMQRKLTLERFQKENPGFDFSGAEISGNYTKGGPDFSNLEK | soluble
MSAPLKHPNAVVLQPPTVTISPLIRFGRYAALSLGVVYGFFRLRQIREYHADIREWDHEKAVAAAEEAAKKKKWLAKDEMRYLMQVVNIPFEEGVKQFGVADLYKED | not soluble
MSAPLPPRGRGTASNPLNRFAPTHSEAFDDGWEQDVPPIQLTEVREEIARTVISRNQSPDLPFDRSINPYRGCEHGCIYCYARPSHAYWDLSPGIDFETRLIAKSNVASALEQELSKPGYRCAPINLGANTDPYQPLERERRLTRQVLEVLLRFRHPLTIVTKGSLILRDLDLLRELAEQNLVAVMISLTTLDDELKRILEPRAAAPSARLRAIRTLSGNGIPVGVLCSPMIPMVNDMELERLLQAARDAGARSAAYMLLRLPREVGPLFEEWLAAHYPQRAEHVMSLVRQCRGGEVYDSRFGHRFRGQGPFADLLAQRFAVAMKRLGLDRREGFGLDCSRFAVPGAQMALF | not soluble
MSASAFNFAFRRFWNSETGPKTVHFWAPTLKWGLVFAGLNDIKRPVEKVSGAQNLSLLATALIWTRWSFVIKPKNYLLASVNFFLGCTAGYHLTRIANFRIRNGDSFKQVIHYIIKGETPAAVAAKQTASTSMNKGVIGTNPPITH | soluble
MSATVKPYQEMESGKREQVELMFNNISPKYDLLNRVLSLGIDKIWRKQALNLLKQDKPAHILDVATGTADLAIEAATRLKPTSVVGIDIAEDMLQIGRGKIAKKNLDKIIRLEKGDSEKINFPDNTFDAVIVSFGVRNFEHLEIGLAEIHRVLKPAGSIMVLEFSKPQNAPFKQVYQFYFKNILPTVGKLISKDSAAYTYLPDSVNAFPDGKAFCSILEKTGFTIKHYKPYTFGVCTAYVGKKLEHHHHHH | not soluble
MSAVTYTFLGPQGTFTEAALMQVPGAADATRIPCTNVNTALERVRAGEADAAMVPIENSVEGGVTATLDAIATGQELRIIREALVPITFVLVARPGVELSDIKRISTHGHAWAQCRLWVDEHLPNADYVPGSSTAASAMGLLEDDAPYEAAICAPLIAAEQPGLNVLAEDIGDNPDAVTRFILVSRPGALPERTGADKTTVVVPLPEDHPGALMEILDQFASRGVNLSRIESRPTGQYLGHYFFSIDADGHATDSRVADALAGLHRISPATRFLGSYARADKQPAVVAPHTSDAAFASAHAWVDSILKGS | soluble
MSAYSMLSDRIVMAKELIKRAESLSRSRKGGIEGGAKLCSKLKAELKFLQKIEAGKVAIKESHLQSTNLTHLKAIVESAENLEEVVSVLRVFGYTDTLGEKQTLVVDVVANGGHTWVKAIGRKAEALHNIWLGRGQYGDKSIIEQAEDFLQASRQQPVQYSNPHIVFAFYNSVSSPMADKLKDMGISVRGDIVAVNSLLNHPEEFQLSESESDDEGQELLQVTRVDRDNVLARVAFPTEIKVDVCKKVNLDITTLITYVSAMSYGGCHFVFKEKVLTEQAEQERKERVLPQLEAFMKDKELFACESAVKDFQSILDTLGGPGERERADVLIKRISVVPDQPSERALRLVASSKINSRSLTIFGTGDTLKAITMTANSGFVRAANNQGVKFSVFIHQPRALTESKEAFAVPLPKDLTDDSAH | not soluble
MSCQGPVCTNLGLKPGQRLTVKGIIAPNAKSFVMNLGKDSTHLGLHFNPRFDAHGDVNLIVCNSKKMEEWGTEQRETVFPFQKGAPIEITFSINPSDLTVHLPGHQFSFPNRLGLSVFDYFDTHGDFTLRSVSWE | soluble
MSCRKSAPDQCSIWQSEIGVFKMFITMNRLLRLQIMIPELFLYNETHQGLNNQNVHAVGAYFDQHDPEGLQQVVPLLNEAAANQDVVVIDSMASLVDLYTMDSRGLHEICDLATPFFQLLAHPRISMEVKLLINRLKGVLLTRDAAILQLIIQVYENIAEGDQEAEEADERVKALLAERFGNDI | not soluble
MSCTRRQFITRVGALAAVSGMAGRVVANTLNINGVRYGMVHDESLCIGCTACMDACREVNTVPEGVSRLTIIRSEPQGTFPDVKYRFFRHSCQHCDHAPCVDVCPTGASFRDAASGIVDVNPDLCVGCQYCIAACPYRVRFIHPVSKTADKCDFCRKTNLKAGKQPACVESCPTKALTFGNLDDPNSDISRLLRQKTTYRYKLALGTKPKVYRVPFNYGEVSQ | not soluble
MSDAATRRLMKELAQLKSEAPEGLLVDNTSTSNDLKQWKIGVVGAEGTLYAGEVFMLQFTFGPQYPFNSPEVMFVGETIPAHPHIYSNGHICLSILSDDWTPALSVQSVCLSILSMLSSSKEKKHPIDDAIYVRTCSKNPSKTRWWFHDDSV | not soluble
MSDADPKVPHRGHELLDVLARLGGSARNAQIAQVMDVSEETVRRLVKTLAKQGKVERVHGGTYLRGSQDAPMYSGALEQQPKEKTRIAKGVLELIRDGMTLFINVGSTTTYVAEQLRERRDLTIVTNSISTVASLADHNGSRVFLAGGEVSRSERGCFGRATEDFARRFAYDVLVIGADAMSPELGVLAANPREAELTRALLGNATRVIVAADYRKFSAIAPCIAAPLEAITDLVTDAAPPDALQDALDRCGVATHLAAKSGRITTRTPPPQDVGHSNTNRKTLSFPTEVSLEHHHHHH | soluble
MSDAFLSSIKNRRTIYALDKQLPVSQEKIVELVKEAVSHSPSAFNSQSSRVVVLFGAEHEQFWNIAKDELKKIVPADAFAATETKLNSFAAGAGTVLFFEDQTVVRQLQEQFALYADNFPVWSEQASGMAQFAVWTALAEHKVGASLQHYNPLVDAQTHKTWNLPESWKLRAQMPFGAIAAPAGEKAFIAESERFKVFGN | not soluble
MSDAMPLDQTLEQLTQDEWIDIPQGWSQGRTIYGGLVAGLLMHKALSVMNDESKNLLSTSITFVGPVNEGRVRLTVEILRQGKSVTTIEARLWQDQAVQTILIASFGQPRSSEIFVLEHHHHHH | soluble
MSDKISFLPPEPIQLLDEDSTEPELDIDSQQENEGPISASNSNDSTSHSNDCGATITRTRPRRSSSINANFSFQKAHVSDCTIVNGDHGTKFAVWRITVFLEPNLKAFAAKRESYKIQTYKRYSDFVRLRENLLTRIKTAKPEKLNCLQIPHLPPSVQWYSSWKYQEVNLNKDWLAKRQRGLEYFLNHIILNSSLVEMTKDILIQFLEPSKRVA | soluble
